Assay results reported in publication PMC3405546 (Circulation Research, 2012).

Columns and labels:
[1] = molecular target: glutathione s-transferase (GST) tagged cyclin E (human, UniProt P24864 1-410); assay: cross-linking
cross-linking = molecular target: the molecule itself; assay: cross-linking

Chain of glutathione s-transferase (GST) tagged cyclin E (P24864 whole entry): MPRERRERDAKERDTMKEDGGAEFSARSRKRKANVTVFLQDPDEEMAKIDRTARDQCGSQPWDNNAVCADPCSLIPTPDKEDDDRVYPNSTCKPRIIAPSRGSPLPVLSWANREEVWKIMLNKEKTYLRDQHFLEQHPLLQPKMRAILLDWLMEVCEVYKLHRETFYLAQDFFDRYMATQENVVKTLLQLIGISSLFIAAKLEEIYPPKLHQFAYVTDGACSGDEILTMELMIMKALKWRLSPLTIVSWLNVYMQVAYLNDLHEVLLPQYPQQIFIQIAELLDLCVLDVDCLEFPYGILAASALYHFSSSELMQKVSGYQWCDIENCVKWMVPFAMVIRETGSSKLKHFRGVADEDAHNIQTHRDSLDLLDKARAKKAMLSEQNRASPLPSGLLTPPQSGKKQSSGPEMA

stoichiometry N [1]: 2 Cx43^CTMK4D per cyclin E
B1: Cx43^CTMK4D (Cx43 C-terminus, phospho-mimetic Ser>Asp), purified (domain or fragment, rat, UniProt P08050 236-382, looked up)
chain: VKDRVKGRSDPYHATTGPLDPSKDCGDPKYAYFNGCSSPTAPLDPMDPPGYKLVTGDRNNSSCRNYNKQASEQNWANYSAEQNRMGQAGSTISNSHAQPFDFPDDNQNAKKVAAGHELQPLAIVDQRPSSRASSRASSRPRPDDLEI
stoichiometry N (cross-linking): 2
